In patent US9422450B2, “Surface coated structures and methods” (ARCH BIOPHYSICS, INC., priority 2009, dated 2016):
Bridges are numbered along the chain shown (N, C = ends). Where no end group is shown, it is not given here.

Experiment: Corrosion resistance (Icorr, Ecorr, corrosion rate, Rp) of coated stainless steel
Format: physicochemical
Details: pilin conjugates on stainless steel

## E-PAK: pilin peptide conjugated to an E-coil (negatively charged leucine zipper) peptide (DGLWKCTSDQDEQFIPKGCSR; disulfide 6-19; also: conjugated to E-coil peptide)
Unmodified 0.0547
  Corrosion Rate: 0.1981 mpy
Unmodified 4.2
  Ecorr: 87.2 mV
Unmodified 303.141
  Rp: 121.722 Ohms/cm^2
Unmodified 802
  Icorr: 1940 nAmps
